What was measured:
Type in all cases: protein assay
[1] = substrate: O=[N+]([O-])c1ccc(O[C@H]2O[C@H](CO)[C@@H](O)[C@H](O)[C@@H]2O)cc1; assay: (§1) Ratio of Kcat to Km for Bacteroides thetaiotaomicron GH92 alpha-mannosidase GH92 alpha-mannosidase 3965 assessed as mannose release after 16 hrs by HPLC
[2] = substrate: OC[C@H]1O[C@H](O[C@H]2[C@H](O)[C@H](O)[C@@H](O)O[C@@H]2CO)[C@@H](O)[C@@H](O)[C@@H]1O; assay: as §1
[3] = substrate: O=[N+]([O-])c1ccc(O[C@H]2O[C@H](CO)[C@@H](O)[C@H](O)[C@@H]2O)cc1; assay: (§2) Activity of Bacteroides thetaiotaomicron GH92 alpha-mannosidase GH92 alpha-mannosidase 3965 assessed as mannose release after 16 hrs by HPLC
[4] = substrate: OC[C@H]1O[C@H](O[C@H]2[C@H](O)[C@H](O)[C@@H](O)O[C@@H]2CO)[C@@H](O)[C@@H](O)[C@@H]1O; assay: as §2
[5] = substrate: O=[N+]([O-])c1ccc(O[C@H]2O[C@H](CO)[C@@H](O)[C@H](O)[C@@H]2O)cc1; assay: (§3) Ratio of Kcat to Km for Bacteroides thetaiotaomicron GH92 alpha-mannosidase GH92 alpha-mannosidase 3784 assessed as mannose release after 16 hrs by HPLC
[6] = substrate: OC[C@H]1O[C@H](O[C@H]2[C@@H](O)[C@H](O)[C@@H](CO)O[C@@H]2O)[C@@H](O)[C@@H](O)[C@@H]1O; assay: as §3
[7] = substrate: O=[N+]([O-])c1ccc(O[C@H]2O[C@H](CO)[C@@H](O)[C@H](O)[C@@H]2O)cc1; assay: (§4) Activity of Bacteroides thetaiotaomicron GH92 alpha-mannosidase GH92 alpha-mannosidase 3784 assessed as mannose release after 16 hrs by HPLC
[8] = substrate: OC[C@H]1O[C@H](O[C@H]2[C@@H](O)[C@H](O)[C@@H](CO)O[C@@H]2O)[C@@H](O)[C@@H](O)[C@@H]1O; assay: as §4
[9] = substrate: O=[N+]([O-])c1ccc(O[C@H]2O[C@H](CO)[C@@H](O)[C@H](O)[C@@H]2O)cc1; assay: (§5) Activity of Bacteroides thetaiotaomicron GH92 alpha-mannosidase GH92 alpha-mannosidase 2199 assessed as mannose release after 16 hrs by HPLC
[10] = substrate: OC[C@H]1O[C@H](O[C@H]2[C@@H](O)[C@H](O)[C@@H](CO)O[C@@H]2O)[C@@H](O)[C@@H](O)[C@@H]1O; assay: as §5
[11] = substrate: O=[N+]([O-])c1ccc(O[C@H]2O[C@H](CO)[C@@H](O)[C@H](O)[C@@H]2O)cc1; assay: (§6) Ratio of Kcat to Km for Bacteroides thetaiotaomicron GH92 alpha-mannosidase GH92 alpha-mannosidase 2199 assessed as mannose release after 16 hrs by HPLC
[12] = substrate: OC[C@H]1O[C@H](O[C@H]2[C@@H](O)[C@H](O)[C@@H](CO)O[C@@H]2O)[C@@H](O)[C@@H](O)[C@@H]1O; assay: as §6

B1: Alpha-1,2-mannosidase (BT_3965) (Bacteroides thetaiotaomicron), Q8A0Q6 (protein)
chain: MAQTEKLTDYVNPFVGTDGYGNVYPGAQIPFGGIQISPDTDSRFYDAASGYKYNHLTLMGFSLTHLSGTGIPDLGDFLFIPGTGEMKLEPGTHEDPDQGYRSRYSHDKEWASPNYYAVELADYGVKAEMTSGVRSGMFRFTYPESDNAFIMIDMNHTLWQSCEWSNLRMINDSTITGYKLVKGWGPERHVYFTATFSKKLTGLRFVQDKKPVIYNTSRFRSSYEAWGKNLMACISFDTKAGEEVTVKTAISAVSTDGARNNMKELDGLTFNELRAKGEALWEKELGKYTLTADRKTKETFYTSAYHAALHPFIFQDSDGQFRGLDKNIEKAEGFTNYTVFSLWDTYRALHPWFNLVQQEVNADIANSMLAHYDKSVEKMLPIWSFYGNETWCMIGYHAVSVLADMIVKEVKGFDYERAYEAMKTTAMNSNYDCLPEYREMGYVPFDKEAESVSKTLEYAYDDYCIAQAAKKLGKEDDYHYFLNRALSYQTLIDPETKYMRGRDSKGDWRTPFTPVAYQGPGSVHGWGDITEGFTMQYTWYVPQDVQGYINEAGKELFRKRLDELFTVELPDDIPGAHDIQGRIGAYWHGNEPCHHVAYLYNYLKEPWKCQKWIRTIVDRFYGNTPDALSGNDDCGQMSAWYMFNCIGFYPVAPSSNIYNIGSPCAEAITVRMSNGKNIEMTADNWSPKNLYVKELYVNGKKYDKSYLTYDDIRDGVKLRFVMSGKPNYKRAVSDEAVPPSISLPEKTMKYKSSIGF
B1 was tested, and the kcat/Km [1] was 14 mM⁻¹ min⁻¹, the kcat/Km [2] was 11 mM⁻¹ min⁻¹ and the Km [3] was 1000 µM. The kcat [3] was 14 min⁻¹, the Km [4] was 8 mM and the kcat [4] was 89 min⁻¹.

B2: Alpha-1,2-mannosidase (BT_3784) (Bacteroides thetaiotaomicron), Q8A182 (protein)
chain: MKTHFSFKHLLFIGGAVLYSMQISAVKNPVDYVSTLVGTQSKFELSTGNTYPATALPWGMNFWTPQTGKMGDGWAYTYNADKIRGFKQTHQPSPWMNDYGQFSIMPITGGLVFDQDQRASWFSHKAEVAKPYYYKVYLADHDVTTELVPTERAAMFRFTYPETKNAYVVIDAFDKGSYVKVIPEENKIIGYSTKNSGGVPENFKNYFVIQFDKPFTFTSGVKENNILPNETEVQGNHTGAIIGFATQKGEIVHARVASSFISYEQAELNLKELGKDSFDQLVTKGKDIWNREMSKVDVEDDNIDNLRTFYSCLYRSMLFPRSFYEIDAKGQVVHYSPYNGKVLPGYMFTDTGFWDTFRCLFPFLNLMYPSMNQKMQEGLVNAYLESGFLPEWASPGHRDCMVGNNSASVVADAYIKGLRGYDIETLWEALKHDANAHLRGTASGRLAYDAYNKLGYVPNNIGIGQNVARTLEYAYNDWTIYTLGKKLGKPASEIDIFKQRALNYKNVYHPKRKLMVGKDDKGVFNPKFDAVDWSGEFCEGNSWHWSFCVFHDPQGLIDLMGGKKEFNNMMDSVFVIPGKQGMESRGMIHEMREMQVMNMGQYAHGNQPIQHMVYLYNYSGEPWKAQHWVREIMDKLYTAGPDGYCGDEDNGQTSAWYVFSALGFYPVCPGTDQYILGTPLFKSAKLHLENGKTVTIKASNNNTDNRYVKDMKVNGKAFTRNYLTHDQLLKGANIQYQMSPTPNKQRGTTEKDIPYSLSFE
With B2 the kcat/Km [5] was 0.69 mM⁻¹ min⁻¹, the kcat/Km [6] was 11 mM⁻¹ min⁻¹ and the Km [7] was 6.9 mM. It also gave a kcat [7] of 4.8 min⁻¹, a Km [8] of 2300 µM and a kcat [8] of 27 min⁻¹.

B3: Alpha-1,2-mannosidase (BT_2199) (Bacteroides thetaiotaomicron), Q8A5N9 (protein)
chain: MVTRLFFLSICFPFLLTSCQQSKKTVEFVDYVNPLMGTESTFAFSHGNTYPAVAVPWGMNFWSPQTGENGSGWMYTYTDSLMRGFRQTHQPSPWINDYGTFSIMPLAGELKMSHKERLVPFSHQQEKATPYNYSVTFNNGLQTSLSATSRGAVFEVSFPEKEDQYVVVDAYNGGSSITIEPEKRLVKGATRYNNGGVPDNFANYFMMEFSHPVIEYGTYNGDTLLHHQTDVAADYTCAYLKFDVPAGEKLTIRTASSFISPEQAAINFNREVADADVQLISGKAREQWNNYLGRVEAEGGTDEQLRTFYSCLYRTLLFPREFYEFDSQGNPVYYSPYDGNVHDGYMYTDNGFWDTFRAVHPLFTLLYPEVSERVTQSIINAYNESGFMPEWASPGHRGCMIGNNSVSLLVDAWMKGIQTVDAEKALEAMIHQTQARHAEIASVGRDGFEYYDKLGYVPYPEVPEATAKTLEYAYADWCIARFAESLGKQDIADQYYQKAPNYRNLYYPEHGFMWTKDAKGNWRDRFDATEWGGPFTEGSSWHWTWSVFHDPEGLSELMGGHEPMIARLDSMFVAPNTYNYGTYGFVIHEIAEMVALNMGQYAHGNQPVQHAIYLYDYIGQPWKTQYHLRNVMDKLYNSGSKGYCGDEDNGQTSAWYVFSAMGFYPVCPGMPEYAIGSPLFKKVTLHLPEGKNFVVSAADNAADRPYIRKALLNGQEFTRNYLTHDELKQGGELNLSMDSVPNQQRGTQPADFPYSYSK
For B3, the Km [9] was 7.5 mM, the kcat [9] was 6.3 min⁻¹ and the kcat [10] was 2400 min⁻¹. It also gave a kcat/Km [11] of 0.84 mM⁻¹ min⁻¹ and a kcat/Km [12] of 3600 mM⁻¹ min⁻¹.
